Paper PMC3046128, “Systematic Two-Hybrid and Comparative Proteomic Analyses Reveal Novel Yeast Pre-mRNA Splicing Factors Connected to Prp19” (PLoS ONE, 2011)

Tests used:
[1] = target: T1, full length S. cerevisiae Prp19 (S. cerevisiae), P32523; experiment: AUC; sedimentation velocity, 30,000 rpm, 22°C, 280 nm; Sedfit c(s) analysis; ScPrp19 constant with His6-ScUrn1 at 1∶1 or 1∶2.5 molar ratio; details: remark: other sources report otherwise
T1 chain: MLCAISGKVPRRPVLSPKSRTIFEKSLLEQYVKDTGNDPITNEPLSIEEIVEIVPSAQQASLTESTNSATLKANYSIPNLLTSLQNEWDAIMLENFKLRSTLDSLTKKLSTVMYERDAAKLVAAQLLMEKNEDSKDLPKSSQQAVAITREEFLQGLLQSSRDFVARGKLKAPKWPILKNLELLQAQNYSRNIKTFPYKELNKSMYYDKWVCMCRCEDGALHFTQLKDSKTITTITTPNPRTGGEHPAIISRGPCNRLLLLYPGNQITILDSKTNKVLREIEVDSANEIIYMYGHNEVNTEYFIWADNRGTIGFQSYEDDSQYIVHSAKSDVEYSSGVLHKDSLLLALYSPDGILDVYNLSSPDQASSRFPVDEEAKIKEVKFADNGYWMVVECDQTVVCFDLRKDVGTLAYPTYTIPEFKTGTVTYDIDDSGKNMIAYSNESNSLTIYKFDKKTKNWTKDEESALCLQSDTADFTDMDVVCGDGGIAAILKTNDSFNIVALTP

His6-ScPrp19(144–503) = target: T2, His6-ScPrp19(144–503) (S. cerevisiae, UniProt P32523 144-503); experiment: pull-down; purified soluble MBP fusions incubated one hour at 4°C with Ni-NTA beads coated with His6-ScPrp19(144–503); washed; SDS-PAGE and Coomassie staining; details: both partners purified
T2 construct: Prp19, S. cerevisiae, amino acids 144–503; also called His6-Prp19(144–503); ScPrp19 WD40 domain; source: E. coli BL21 (pET15b), purified (Ni-NTA agarose)
T2 sequence (looked up): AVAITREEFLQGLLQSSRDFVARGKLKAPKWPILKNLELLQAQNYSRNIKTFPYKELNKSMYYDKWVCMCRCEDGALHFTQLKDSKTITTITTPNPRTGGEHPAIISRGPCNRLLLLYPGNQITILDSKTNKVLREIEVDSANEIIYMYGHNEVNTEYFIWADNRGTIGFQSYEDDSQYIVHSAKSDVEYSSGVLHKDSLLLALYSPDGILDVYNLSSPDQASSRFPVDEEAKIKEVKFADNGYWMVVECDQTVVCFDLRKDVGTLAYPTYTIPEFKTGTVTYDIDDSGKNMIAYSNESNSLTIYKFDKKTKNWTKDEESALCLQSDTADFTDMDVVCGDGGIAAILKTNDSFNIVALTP

S. pombe Prp19-Myc13 = target: T3, S. pombe Prp19-Myc13 (S. pombe, UniProt O14011 1-488); experiment: co-IP; anti-HA immunoprecipitate from S. pombe cwf7-HA3 prp19-Myc13 prp17-Myc13 cells; anti-Myc immunoblot quantified on an Odyssey instrument; details: partners not purified
T3 construct: Prp19 (Cwf8), S. pombe, open reading frame tagged at the 3' end of the endogenous locus; also called SpPrp19; Cwf8; source: S. pombe, tagged at the endogenous locus, in lysate; not shown: Myc13, C-terminal, kept
T3 sequence (looked up): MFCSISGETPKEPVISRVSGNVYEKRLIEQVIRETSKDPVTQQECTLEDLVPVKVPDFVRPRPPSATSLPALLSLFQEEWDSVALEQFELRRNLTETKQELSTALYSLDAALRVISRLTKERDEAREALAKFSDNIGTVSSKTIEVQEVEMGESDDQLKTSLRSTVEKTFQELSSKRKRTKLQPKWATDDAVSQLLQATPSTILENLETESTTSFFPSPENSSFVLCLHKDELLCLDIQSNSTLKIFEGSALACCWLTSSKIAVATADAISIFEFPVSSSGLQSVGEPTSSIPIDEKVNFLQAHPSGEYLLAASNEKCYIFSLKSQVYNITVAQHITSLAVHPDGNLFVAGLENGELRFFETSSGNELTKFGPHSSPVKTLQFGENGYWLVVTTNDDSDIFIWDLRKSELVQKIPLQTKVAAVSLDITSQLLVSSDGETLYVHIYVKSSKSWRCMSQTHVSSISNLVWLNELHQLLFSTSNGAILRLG

[2] = target: T4, full length S. cerevisiae Prp19 (S. cerevisiae, UniProt P32523 1-503); experiment: AUC; sedimentation velocity, 30,000 rpm, 22°C, 280 nm; Sedfit c(s) analysis; ScPrp19 constant with His6-ScUrn1 at 1∶1 or 1∶2.5 molar ratio; details: both partners purified
T4 construct: Prp19, S. cerevisiae, full length (mass 58.6 kDa); no tag is printed for Prp19 in this experiment; also called ScPrp19; source: E. coli BL21 (pETDuet-1), co-expressed with His6-ScUrn1, purified (Ni-NTA agarose, heparin agarose, gel filtration)
T4 sequence (looked up): T1 chain

B1: full length S. cerevisiae Prp19, P32523 1-503 (natural protein)
chain: T1 chain
[1]
  stoichiometry N: 4

B2: MBP-ScPrp17(1–140) (domain or fragment, S. cerevisiae, UniProt P40968 1-140, looked up)
chain: MGLVDGYDTSSDSDLNFDEGKSVHEKKNGNLHEDTSYEPSSNNIHKRKSHFTKSELKRRRKTRKGDGPWGSWSSSDDETSQASETQKEDQDIFVHALAEDNLDSEQIEVEEVSHFYGKSEKDYQGRGYLYPPNDVDVDLR
notes: Prp17/Cdc40, S. cerevisiae, residues 1–140; source: E. coli BL21 (pMAL-c2X), purified (amylose beads)
His6-ScPrp19(144–503)
  binding result: binds

B3: S. pombe Prp17-Myc13 (natural protein, UniProt O43071 1-558, looked up)
chain: MLVANYSSDSEEQENSQSPNIQPLLHTENLAPAVVDNVKDDLIVSKGGNSRELARNVPVNEMVQPALGPANPFVTKEQDSIKNSITGYAEREYVPNFVFNQEYYANTHAIYGKRNFDDNEATTSTDLKRKSQKIKERREDPGDPSILEGDGAYKGPWAGYGSEQSSSPLEYSEYEEVESLDVKSEKDTESNNLGQNELLKEQLATPEVETHRSKEETILHKDRLFDYQNRSYMHVPNDVGINLSEEPGEQTCYIPKKHIFTWKGHTKGISCLRFFPISGHLLLSGSMDNQIKIWEVYHDRSLLRTFQGHARPIRDLSFSQDGRSFLSTSFDKTIKLWDTELGKCLNCFNSDRLTNCVKFQVDPDKPNEFLAGTADKRILQFDIRSPDIVQAYDHHLGGINSITFLENGKRFVTTSDDSSMRFWEYGTPVPIKFVADIAMHSMPRVALRPNGKSIACQSLDNCIYVYSAYEKYRQNKKKVFKGYSCSGYSLEVGFSPDGRFVFSGDSSGNACFWDWKTCKLMAKLPAHSGPVQSMAFHPQETSKVATSSIVDGSIKYWD
notes: Prp17, S. pombe, open reading frame tagged at the 3' end of the endogenous locus; also called SpPrp17; source: S. pombe, tagged at the endogenous locus, in lysate; not shown: Myc13, C-terminal, kept
S. pombe Prp19-Myc13
  stoichiometry N: 1.05 ratio of Myc-tagged proteins

B4: MBP-ScUrn1(165–274) (domain or fragment, S. cerevisiae, UniProt Q06525 165-274, looked up)
chain: TGLVSGYGSSSGEEDEEEDEEEDEENEEQIVNQDISIIDDLNRIDTDDIDERNIFFELFDRYKLDKFSTWSLQSKKIENDPDFYKIRDDTVRESLFEEWCGERSGNATAE
notes: source: E. coli BL21 (pMAL-c2X), purified (amylose beads)
His6-ScPrp19(144–503)
  binding result: binds

B5: His6-ScUrn1 (natural protein, S. cerevisiae, UniProt Q06525 1-465, looked up)
chain: MRGEWQEFKTPAGKKYYYNKNTKQSRWEKPNLKKGSNLESNAKESQTERKPTFSLELVNGWHLIIYNDGTKLYFNDDSKEFKNDISQEDDSRCRSLIESLDKEKLVLLIGVARGYTMREEDIDKILESCNEEIHLFKRNQDEVERKDEISEEAGDVKSPLQESHTGLVSGYGSSSGEEDEEEDEEEDEENEEQIVNQDISIIDDLNRIDTDDIDERNIFFELFDRYKLDKFSTWSLQSKKIENDPDFYKIRDDTVRESLFEEWCGERSGNATAEESDSEDNSEDDSEVLEPTKYHYLAQIVANAGTIAPDTIPQDIRKQQKALYKAYKIKEYIPSKRDQDKFVSQLLFYYKTFDLEQRKEIFCDCLRDHERDFTGAVESLRQDKELIDRWQTLLKAPADSSSIEDILLSIEHRCCVSPIVVTEPRYYVVGILEKTVVWVRWLAAEVGPSSRFTPVGAGNEPINPE
notes: Urn1, S. cerevisiae (His6-ScUrn1 mass 55.1 kDa); the printed mass fits the whole protein; also called His6-Urn1; source: E. coli BL21 (pETDuet-1), co-expressed with ScPrp19, purified (Ni-NTA agarose, heparin agarose, gel filtration)
[2]
  stoichiometry N: 1 Urn1 per Prp19 tetramer
